Results taken from patent publication US20060140889A1 (L MABS B V, published 2006).

Key:
bovine lactoferrin = biological target: T1, bovine lactoferrin (bovine, UniProt P24627 20-708); experiment: not described at this place
T1 construct: also called LF

chicken lysozyme [1] = biological target: T2, chicken lysozyme (chicken, UniProt P00698 19-147); experiment: ELISA on lysozyme, 100-fold dilution of the protein extract
T2 construct: also called Egg White Lysozyme

chicken lysozyme [2] = biological target: T2, chicken lysozyme; experiment: ELISA, well coated with lysozyme (100 ug/ml) and blocked with ELK, ~50 ng iMab per well, anti-VSV-HRP; urea purification
chicken lysozyme [3] = biological target: T2, chicken lysozyme; experiment: ELISA

T2 sequence (P00698 19-147 limits assumed): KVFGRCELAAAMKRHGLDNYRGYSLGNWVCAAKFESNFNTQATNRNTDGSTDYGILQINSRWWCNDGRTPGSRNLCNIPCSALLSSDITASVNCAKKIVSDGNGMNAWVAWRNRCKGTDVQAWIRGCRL
T1 sequence (P24627 20-708 limits assumed): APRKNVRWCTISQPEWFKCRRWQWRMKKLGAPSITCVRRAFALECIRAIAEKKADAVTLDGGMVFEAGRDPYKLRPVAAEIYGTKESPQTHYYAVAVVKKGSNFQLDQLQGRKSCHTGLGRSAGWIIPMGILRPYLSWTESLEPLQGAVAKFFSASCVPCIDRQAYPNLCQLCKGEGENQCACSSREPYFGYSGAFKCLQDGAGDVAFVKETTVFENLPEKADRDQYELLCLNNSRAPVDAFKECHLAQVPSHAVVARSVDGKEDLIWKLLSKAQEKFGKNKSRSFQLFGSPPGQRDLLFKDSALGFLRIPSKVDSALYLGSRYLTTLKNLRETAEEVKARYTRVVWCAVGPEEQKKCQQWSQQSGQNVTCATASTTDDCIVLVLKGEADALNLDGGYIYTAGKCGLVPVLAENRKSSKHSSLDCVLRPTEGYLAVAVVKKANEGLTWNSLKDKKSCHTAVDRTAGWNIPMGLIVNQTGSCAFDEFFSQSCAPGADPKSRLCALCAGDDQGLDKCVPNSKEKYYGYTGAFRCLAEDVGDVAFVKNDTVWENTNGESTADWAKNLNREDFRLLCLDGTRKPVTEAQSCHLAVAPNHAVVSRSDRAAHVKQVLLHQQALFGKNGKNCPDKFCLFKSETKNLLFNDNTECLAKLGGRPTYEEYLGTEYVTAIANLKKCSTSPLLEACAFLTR

Binder	binding result (bovine lactoferrin)	Absorbtion (450 nm) (chicken lysozyme [2])	further results
iMab142-xx-0002 (designed binder, not shown: small tags and cut ends, also called iMab142-xx-002) MNVKLVEKGGNFVENDDDLKLTCRAEGYTIGPYSMGWFRQAPNDDSTNVSCINMGGGITYYGDSVKERFDIRRDNASNTVTLSMDDLQPEDSAVYNCAADWWDGFTYGSTWYNPSSYDYRGQGTDVTVSS	binds		
iMab148-xx-0002 (designed binder, Derivative of iMab142-xx-0002 in which all lysine residues were replaced; xx = C-terminal tag not specified) MNVHLVERGGNFVENDDDLNLTCRAEGYTIGPYSMGWFRQAPNDDSTNVATINMGGGITYYGDSVDERFDIRRDNASNTVTLSMDDLQPEDSAVYNCAADWWDGFTYGSTWYNPSSYDYRGQGTDVTVSS	binds		
iMab111 (designed binder, iMab100 derivative with two extra cysteines in the core; E. coli, CM126) NVKLVCKGGNFVENDDDLKLTCRAEGYTIGPYCMGWFRQAPNDDSTNVATINMGGGITYYGDSVKERFDIRRDNASNTVTLSMDDLQPEDSAEYNCAGDSTIYASYYECGHGLSTGGYGYDSHYRCQGTDVTVSS		0.42 absorbance at 450 nm	signal over background signal (fold) (chicken lysozyme [1]): ~20 fold
iMab116 (designed binder, iMab100 derivative lacking one core cysteine; E. coli, CM126; also called iMab16; not shown: C-terminal linker, VSV tag and 6x His tag of vector CM126) NVKLVEKGGNFVENDDDLKLTCRAEGYTIGPYCMGWFRQAPNDDSTNVATINMGGGITYYGDSVKERFDIRRDNASNTVTLSMDDLQPEDSAEYNGAGDSTIYGSYYECGHGLSTGGYGYDSHYRGQGTDVTVSS		0.238 absorbance at 450 nm	
iMab115 (designed binder, iMab100 with the asparagine of the putative N-glycosylation site in AR3 changed to glutamine; expressed in E. coli as a 21 kD protein; also called iMab15) NVKLVEKGGNFVENDDDLKLTCRAEGYTIGPYCMGWFRQAPNDDSTNVATINMGGGITYYGDSVKERFDIRRDQASNTVTLSMDDLQPEDSAEYNCAGDSTIYASYYECGHGLSTGGYGYDSHYRGQGTDVTVSS			binding result (chicken lysozyme [3]): binds
iMab122 (designed binder, 9 beta-strand iMab; E. coli, CM126; not shown: C-terminal linker, VSV tag and 6x His tag of vector CM126) NVKLVEKGGNFVENDDDLKLTCRASGRTFSSRTMGWFRQAPNDDSTNVATIRWNGGSTYYTNYGDSVKERFDIRVDQASNTVTLSMDDLQPEDSAEYNCAGTDIGDGWSGRYDYRGQGTDVTVSS		0.271 absorbance at 450 nm	
